Assay results taken from patent US20030186281A1, “Modified tetracycline repressor protein compositions and methods of use” (priority 2001, published 2003).
Numbering of substitutions follows the chain as printed. In names and notes the source's numbering stands.

B1: TetRrev29/25: revTetR(BD) G21- I22- E23- G24S (protein)
chain: MSRLDKSKVINSALELLNEVSLTTRKLAQKLGVEQPTLYWHVKNKRALLDALAVEILARHHDYSLPAAGESWQSFLRNNAMSFRRALLRYRDGAKVHLGTRPDEKQYDTVETQLRFMTENGFSLRDGLYAISAVSHFTLGAVLEQQEHTAALTDRPAAPDENLPPLLREALQIMDSDDGEQAFLHGLESLIRGFEVQLTALLQIV
modifications: Modified tetracycline repressor
notes: revTetR(BD) G21- I22- E23- G24S
B2: TetRrev28/23: revTetR(BD) A13A L14S N18K E23V (protein)
chain: MSRLDKSKVINSASELLKEVGIVGLTTRKLAQKLGVEQPTLYWHVKNKRALLDALAVEILARHHDYSLPAAGESWQSFLRNNAMSFRRALLRYRDGAKVHLGTRPDEKQYDTVETQLRFMTENGFSLRDGLYAISAVSHFTLGAVLEQQEHTAALTDRPAAPDENLPPLLREALQIMDSDDGEQAFLHGLESLIRGFEVQLTALLQIV
modifications: Modified tetracycline repressor
notes: revTetR(BD) A13A L14S N18K E23V
B3: TetRrev29/9: revTetR(BD) L17V N18Y G21G I22T (protein)
chain: B2 chain with S14L, L17V, K18Y, I22T, V23E
modifications: Modified tetracycline repressor
notes: revTetR(BD) L17V N18Y G21G I22T
B4: TetRrev29/35: revTetR(BD) L17S E23D (protein)
chain: B2 chain with S14E, L17S, K18N, V20G, V23D
modifications: Modified tetracycline repressor
notes: revTetR(BD) L17S E23D
B5: TetRrev28/26: revTetR(BD) L14T N18Y G21G I22F (protein)
chain: B2 chain with S14T, K18Y, I22F, V23E
modifications: Modified tetracycline repressor
notes: revTetR(BD) L14T N18Y G21G I22F
B6: TetRrev29/42: revTetR(BD) E19D G96R (protein)
chain: B2 chain with S14L, E15D, K18N, V23E, G96R
modifications: Modified tetracycline repressor
notes: revTetR(BD) E19D G96R
B7: TetRrev28/46: revTetR(BD) A13A V20G G21R I22N G24G (protein)
chain: B2 chain with S14L, K18N, V20G, G21R, I22N, V23E
modifications: Modified tetracycline repressor
notes: revTetR(BD) A13A V20G G21R I22N G24G
B8: TetRrev28/41: revTetR(BD) L17L N18D V20R I22N (protein)
chain: B2 chain with S14L, K18D, V20R, I22N, V23E
modifications: Modified tetracycline repressor
notes: revTetR(BD) L17L N18D V20R I22N
B9: TetRrev28/27: revTetR(BD) L17G I22M (protein)
chain: B2 chain with S14L, L17G, K18N, I22M, V23E
modifications: Modified tetracycline repressor
notes: revTetR(BD) L17G I22M
B10: TetRrev28/36: revTetR(BD) N18I E19G V20G E23V (protein)
chain: B2 chain with S14L, K18I, E19G, V20G
modifications: Modified tetracycline repressor
notes: revTetR(BD) N18I E19G V20G E23V
B11: TetRrev28/31: revTetR(BD) A13A V20G G21R I22N G24G (protein)
chain: B2 chain with S14L, K18N, V20G, G21R, I22N, V23E
modifications: Modified tetracycline repressor
notes: as for B7
B12: TetRrev28/49: revTetR(BD) N18Y V20D I22T (protein)
chain: B2 chain with S14L, K18Y, E19D, I22T, V23E
modifications: Modified tetracycline repressor
notes: revTetR(BD) N18Y V20D I22T
B13: TetRrev29/52: revTetR(BD) L14V L17V N18K V20V G24G (protein)
chain: B2 chain with S14V, L17V, V23E
modifications: Modified tetracycline repressor
notes: revTetR(BD) L14V L17V N18K V20V G24G
B14: TetRrev28/48: revTetR(BD) N18Y V20D I22T W43S (protein)
chain: B2 chain with S14L, K18Y, V20D, I22T, V23E, W43S
modifications: Modified tetracycline repressor
notes: revTetR(BD) N18Y V20D I22T W43S
B15: TetRrev29/27: revTetR(BD) L14E V20G (protein)
chain: B2 chain with S14E, K18N, V20G, V23E
modifications: Modified tetracycline repressor
notes: revTetR(BD) L14E V20G
B16: TetRrev28/40: revTetR(BD) L14S N18Y I22F L25L (protein)
chain: B2 chain with K18Y, I22F, V23E
modifications: Modified tetracycline repressor
notes: revTetR(BD) L14S N18Y I22F L25L
B17: TetRrev29/17: revTetR(BD) L17S E23D (protein)
chain: B2 chain with S14L, L17S, K18N, V23D
modifications: Modified tetracycline repressor
notes: revTetR(BD) L17S E23D
B18: TetRrevAtc4-1: revTetR(BD) A50S D53F A56G V57I H63Q (protein)
chain: B2 chain with S14L, K18N, V23E, A50S, D53F, A56G, V57I, H63Q
modifications: Modified tetracycline repressor
notes: revTetR(BD) A50S D53F A56G V57I H63Q
B19: TetRrev28/30: revTetR(BD) V20G G21A I22I E23G (protein)
chain: B2 chain with S14L, K18N, V20G, G21A, V23G
modifications: Modified tetracycline repressor
notes: revTetR(BD) V20G G21A I22I E23G
B20: TetRrev29/24: revTetR(BD) E15V L17F N18Y I22M E23K (protein)
chain: B2 chain with S14L, E15V, L17F, K18Y, I22M, V23K
modifications: Modified tetracycline repressor
notes: revTetR(BD) E15V L17F N18Y I22M E23K

What follows are molecules tested on tet operator sequence (assay: β-galactosidase activity of a tetracycline-regulated promoter in transformed E. coli with revTetR, in the presence and absence of anhydrotetracycline (atc)). Settings: RevTetR isolate cultured in the absence of anhydrotetracycline (ATC).
Type: cell-based, Escherichia coli
Procedure, shortened: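 TetR(BD) chimera mutants (TetR(B) residues 1–50, TetR(D) 51–208) expressed in E. coli regulating a tet operator-controlled lacZ. β-Galactosidase measured in Miller units at 28 °C and 37 °C with and without anhydrotetracycline; reported as percent of maximal expression without Tet repressor.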

Molecule | β-Galactosidase Activity, Cultured Without ATC
B1 | 92.9327
B2 | 92.2055
B3 | 74.4357
B4 | 58.0891
B5 | 89.3918
B6 | 96.187
B7 | 95.9627
B8 | 15.4643
B9 | 95.0152
B10 | 65.5335
B11 | 99.8749
B12 | 62.5137
B13 | 48.4964
B14 | 99.3107
B15 | 82.7579
B16 | 91 .691
B17 | 44.6409
B18 | 100.076
B19 | 55.1783
B20 | 85.5708

Same assay, conditions: RevTetR isolate cultured in the presence of anhydrotetracycline (ATC)

Molecule | β-Galactosidase Activity, Cultured With ATC
B1 | 3.112
B2 | 2.9867
B3 | 11.772
B4 | 2.1051
B5 | 3.8006
B6 | 11.861
B7 | 1.1482
B8 | 5.6333
B9 | 1.6907
B10 | 1.0579
B11 | 1.1121
B12 | 8.2716
B13 | 3.3035
B14 | 1.1587
B15 | 9.453
B16 | 3.4834
B17 | 1.7738
B18 | 6.9011
B19 | 3.7384
B20 | 7.9819
